Measured values reported in the supplement of paper PMC7125110.
± gives the standard error. For part of these data: Variants at the floor of the assay were thinned out.

B1: glmS ribozyme (parent)
chain: AUAAAAGCGCCAGAACUACAGAAAUGUAGUUGACGAGGAGGAGGUUUAUCGAAUUUUCGGCGGAUGCCUCCAAA

What was measured:
Conditions in all cases: with glucosamine-6-phosphate
[1] = variants of: B1; assay: kcat; higher = faster cleavage; RNA array
Method in brief: (§1)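 In situ transcription by E. coli RNA polymerase produced barcoded ribozyme variants on sequenced MiSeq chips, and a hybridised Cy3 probe tracked them at 37 °C. Glucosamine-6-phosphate was flowed in at 40 μM to 10 mM in HEPES/KCl/Mg(OAc)2 buffer. kcat and KM were taken from weighted Michaelis–Menten fits of kobs values from exponential decay fits.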

[2] = variants of: B1; assay: self-cleavage kobs at 160 uM GlcN6P; higher = faster cleavage; RNA array
Method in brief: as §1

[3] = variants of: B1; assay: self-cleavage kobs at 2500 uM GlcN6P; higher = faster cleavage; RNA array
Method in brief: as §1

[4] = variants of: B1; assay: self-cleavage kobs at 640 uM GlcN6P; higher = faster cleavage; RNA array
Method in brief: as §1

[5] = variants of: B1; assay: self-cleavage kobs at 10000 uM GlcN6P; higher = faster cleavage; RNA array
Method in brief: as §1

[6] = variants of: B1; assay: KM; higher = weaker cofactor use; RNA array
Method in brief: as §1

[7] = variants of: B1; assay: self-cleavage kobs at 40 uM GlcN6P; higher = faster cleavage; RNA array
Method in brief: as §1

| Variant | kcat [1] | self-cleavage kobs at 160 uM GlcN6P [2] | self-cleavage kobs at 2500 uM GlcN6P [3] | self-cleavage kobs at 640 uM GlcN6P [4] | self-cleavage kobs at 10000 uM GlcN6P [5] | KM [6] | self-cleavage kobs at 40 uM GlcN6P [7] |
| --- | --- | --- | --- | --- | --- | --- | --- |
| AUAAAAGCGCCAGAACUACAGAAAUGUAGUUGACGAGGAGGAGGUUUAUGGGAUUUUCGGCGGAUGCCUCCAAA | 2.65e-05 ± 7.5e-06 s⁻¹ | 3.58e-05 ± 1.7e-05 s⁻¹ | 3.29e-05 ± 1.4e-05 s⁻¹ |  |  |  |  |
| AUAAAAGCGCCAGAACUACAGAAAUGUAGUUGACGAGGAGGAGGUUUAUAGAAGCUUCGGCGGAUGCCUCCAAA | 1.47e-05 ± 3.9e-06 s⁻¹ |  |  |  |  |  |  |
| AUAAAAGCGCCAGAACUACAGAAAUGUAGUUGACGAGGAGGAGGUUUAUAGAAUUUUCGGCGGAUGCCUUCAAA | 3.03e-05 ± 6.5e-06 s⁻¹ |  | 3.95e-05 ± 6.5e-06 s⁻¹ | 2.82e-05 ± 9.4e-06 s⁻¹ | 1.9e-05 ± 7e-06 s⁻¹ |  |  |
| AUAAAAGCGCCAGAACUACAGAAAUGUAGUUGACGAGGAGGAGGUUUAGCGAAUAUUCGGCGGAUGCCUCCAAA | 0.00113 ± 0.0001 s⁻¹ | 6.19e-05 ± 9.7e-06 s⁻¹ | 0.000539 ± 5.5e-05 s⁻¹ | 0.000213 ± 2.8e-05 s⁻¹ | 0.000891 ± 0.00013 s⁻¹ | 2740 ± 370 µM |  |
| AUAAAAGCGCCAGAACUACAGAAAUGUAGUUGACGAGGAGGAGGUUUAGCGAGUUUUCGGCGGGUGACUCCAAA | 0.000753 ± 0.0002 s⁻¹ | 5.27e-05 ± 1.4e-05 s⁻¹ | 0.000369 ± 7.9e-05 s⁻¹ | 0.00016 ± 2.3e-05 s⁻¹ | 0.000669 ± 0.00013 s⁻¹ | 2220 ± 890 µM | 3.28e-05 ± 1.1e-05 s⁻¹ |
| AUAAAAGCGCCAGAACUACAGAAAUGUAGUUGACGAGGAGGAGGUUUAUAGAAUUUUCGGGGGAUGCGUCCAAA | 3.41e-05 ± 1.4e-05 s⁻¹ |  |  | 6.76e-05 ± 1.9e-05 s⁻¹ | 2.92e-05 ± 1.3e-05 s⁻¹ |  |  |
| AUAAAAGCGCCAGAACUACAGAAAUGUAGUUGACGAGGAGGAGGUUUACCGAAUUUUCGGCGGAUGCCUGCAAA | 1.42e-05 ± 2.5e-06 s⁻¹ |  |  |  | < 1e-05 s⁻¹ |  |  |
| AUAAAAGCGCCAGAACUACAGAAAUGUAGUUGACGAGGAGGAGGUUUAGCGAAUUUUCGGCGGAUGCCUUCAAA | 0.001 ± 4.7e-05 s⁻¹ | 7.37e-05 ± 1.3e-05 s⁻¹ | 0.00059 ± 7.5e-05 s⁻¹ | 0.000263 ± 3e-05 s⁻¹ | 0.000837 ± 7.5e-05 s⁻¹ | 1860 ± 160 µM | 2.78e-05 ± 1.2e-05 s⁻¹ |
| AUAAAAGCGCCAGAACUACAGAAAUGUAGUUGACGAGGAGGAGGUUUAGCGAAGUUUCGGCGGAUGACUCCAAA | 0.00023 ± 5.1e-05 s⁻¹ |  | 0.000269 ± 7.4e-05 s⁻¹ | 0.000235 ± 5.1e-05 s⁻¹ | 0.000194 ± 3.6e-05 s⁻¹ |  |  |
| AUAAAAGCGCCAGAACUACAGAAAUGUAGUUGACGAGGAGGAGGUUUAGCGAAUUUUCGGCGGAUGUCUCCAAA | 0.000381 ± 5.6e-05 s⁻¹ |  | 0.000257 ± 6.4e-05 s⁻¹ | 7.24e-05 ± 1.9e-05 s⁻¹ | 0.000292 ± 4.6e-05 s⁻¹ | 2520 ± 770 µM |  |
| AUAAAAGCGCCAGAACUACAGAAAUGUAGUUGACGAGGAGGAGGUUUAUAGACUUUGGGGCGGAUGCCUCCAAA | 6.76e-05 ± 2.5e-05 s⁻¹ |  | 8.01e-05 ± 1.9e-05 s⁻¹ | 0.000112 ± 2.3e-05 s⁻¹ |  |  |  |
| AUAAAAGCGCCAGAACUACAGAAAUGUAGUUGACGAGGAGGAGGUUUAUAGAAUUUUCGGCGGAGGCCUCCAAA | 2.65e-05 ± 9.7e-06 s⁻¹ |  |  |  |  |  |  |
| AUAAAAGCGCCAGAACUACAGAAAUGUAGUUGACGAGGAGGAGGUUUAUAGAAUUUUCGGCGGAUGGCUCCAAA | 2.95e-05 ± 1.1e-05 s⁻¹ |  | 4.73e-05 ± 9.8e-06 s⁻¹ |  |  |  | 1.98e-05 ± 9e-06 s⁻¹ |
| AUAAAAGCGCCAGAACUACAGAAAUGUAGUUGACGAGGAGGAGGUUUAGCGAAUUUUCGGAGGAUGCCUCCAAA | 1.48e-05 ± 3.5e-06 s⁻¹ |  |  |  |  |  |  |
| AUAAAAGCGCCAGAACUACAGAAAUGUAGUUGACGAGGAGGAGGUUUAGCGAAUUUUCGGCGGAUUCCUCCAAA | 6.16e-05 ± 2.8e-07 s⁻¹ |  |  |  | 3.94e-05 ± 1.3e-05 s⁻¹ | 5640 ± 59 µM |  |
| AUAAAAGCGCCAGAACUACAGAAAUGUAGUUGACGAGGAGGAGGUUUAGCGAAUUUUCGGCGGAUACCUCCAAA | 0.000689 ± 0.00024 s⁻¹ |  | 0.00024 ± 3.6e-05 s⁻¹ | 5.55e-05 ± 1.3e-05 s⁻¹ | 0.000375 ± 9.3e-05 s⁻¹ | 6210 ± 3000 µM |  |
| AUAAAAGCGCCAGAACUACAGAAAUGUAGUUGACGAGGAGGAGGUUUAUAGCAUUUUCGGCGGAUGCCUCCAAA | < 1e-05 s⁻¹ | < 1e-05 s⁻¹ |  | < 1e-05 s⁻¹ |  | 2730 ± 690 µM | < 1e-05 s⁻¹ |
| AUAAAAGCGCCAGAACUACAGAAAUGUAGUUGACGAGGAGGAGGUUUAGGGAAUUUUCGGCGGAUGCCUCCAAA | < 1e-05 s⁻¹ |  |  | < 1e-05 s⁻¹ |  |  |  |
| AUAAAAGCGCCAGAACUACAGAAAUGUAGUUGACGAGGAGGAGGUUUAGCGAAUUUUCGGCGGUUGCCUCCAAA | 1.18e-05 ± 9.4e-07 s⁻¹ | < 1e-05 s⁻¹ |  |  |  |  | < 1e-05 s⁻¹ |
| AUAAAAGCGCCAGAACUACAGAAAUGUAGUUGACGAGGAGGAGGUUUAGCGAAUUUUCGGCGGAUGCUUCCAAA | 0.000145 ± 1.9e-05 s⁻¹ | 5.03e-05 ± 2.2e-05 s⁻¹ | 9.44e-05 ± 1.6e-05 s⁻¹ | 6.17e-05 ± 1.2e-05 s⁻¹ | 0.000144 ± 1.8e-05 s⁻¹ | 862 ± 360 µM |  |
| AUAAAAGCGCCAGAACUACAGAAAUGUAGUUGACGAGGAGGAGGUUUAUAGAAUUUUCGGCGGAUCCCUCCAAA | 1.65e-05 ± 3e-06 s⁻¹ |  |  |  |  |  |  |
